Where no end group is shown, it is not given here.
Key:
[1] = molecular target: T1, soluble DR 3 (DRB1*0301) class II molecules purified from WT49 EBV-B cells (human), P01903; assay: peptide competition ELISA, soluble DR 3, biotinylated indicator IAYD(A)5
T1 chain 1: not shown
T1 chain 2: not shown

[2] = molecular target: T2, soluble DR 7 (DRB1*0701) class II molecules purified from EKR EBV-B cells (human), P01903; assay: peptide competition ELISA, soluble DR 7, biotinylated indicator GFK(A)7, pH 5
T2 chain 1: not shown
T2 chain 2: not shown

[3] = molecular target: soluble DR 11 (DRB1*1101) class II molecules purified from SWEIG EBV-B cells (human), P01903; assay: peptide competition ELISA, soluble DR 11, biotinylated indicator TT831-843
[4] = molecular target: T3, soluble DR 1 (DRB1*0101) class II molecules purified from HOM-2 EBV-B cells (human), P01903; assay: peptide competition ELISA, soluble DR 1, biotinylated indicator GFK(A)7
T3 chain 1: not shown
T3 chain 2: not shown

[5] = molecular target: T4, soluble DR 2a (DRB5*0101) molecules isolated from L cells transfectant L416.3 (human), P01903
T4 chain 1: not shown
T4 chain 2: not shown

[6] = molecular target: T5, soluble DR 8 (DRB1*0801) class II molecules purified from BM9 EBV-B cells (human), P01903; assay: peptide competition ELISA, soluble DR 8, biotinylated indicator GYR(A)6L
T5 chain 1: not shown
T5 chain 2: not shown

[7] = molecular target: T6, soluble DR4 (DRB1*0401) class II molecules purified from BSM or PREISS EBV-B cells (human), P01903; assay: peptide competition ELISA, soluble DR4, biotinylated indicator GFK(A)7
T6 chain 1: not shown
T6 chain 2: not shown

[8] = molecular target: T6, soluble DR4 (DRB1*0401) class II …; assay: peptide competition ELISA, soluble DR 4, biotinylated indicator UD4
[9] = molecular target: T7, DR molecule DRA1*0101/DRB1*0701 on transfected murine L cells (human), P01903; assay: FACS, biotinylated peptide 100 µg/ml on DR-transfected murine L cells
T7 chain 1: not shown
T7 chain 2: not shown

[10] = molecular target: T8, DR molecule DRA1*0101/DRB1*0401 on transfected murine L cells (human), P01903; assay: as above
T8 chain 1: not shown
T8 chain 2: not shown

| Binder | IC50 [1] | IC50 [2] | IC50 [3] | IC50 [4] | IC50 [5] | IC50 [6] | IC50 [7] | IC50 [8] | MFC (mean fluorescence channel) [9] | MFC (mean fluorescence channel) [10] |
| --- | --- | --- | --- | --- | --- | --- | --- | --- | --- | --- |
| DPNANPNVDPNANPNV (modifications not checked) | > 100 µM | > 100 µM | > 100 µM | > 100 µM | > 100 µM | > 100 µM | > 100 µM | > 100 µM |  |  |
| DPNANPNVDPNANPNV (not fully specified (N-terminus)) [NH2 terminal biotinylated T1 peptide] |  |  |  |  |  |  |  |  | 35.7 MFC | 18.9 MFC |
